# Results reported in the RNAGym collection of RNA variant scans (doi:10.1073/pnas.2313332121).
# Fewer inactive variants are shown than the library holds.
# B1: TPR 5TU (parent)
# chain: GGAUCUUCUCGAUCUAACAAAAAAGACAAAUCUGCCACAAAGCUUGAGAGCAUCUUCGGAUGCAGAGGCGGCAGCCUUCGGUGGCGCGAUAGCGCCAACGUUCUCAACUAUGACACGCAAAACGCGUGCUCCGUUGAAUGGAGUUUAUCAUG
# Variants of: B1
# Experiment: polymerase ribozyme fitness, log enrichment relative to wild type (log ratio); higher = more active; in vitro selection for triplet polymerase activity
# Outline: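 Both subunits of a heterodimeric triplet polymerase ribozyme were given their own mutant library, built by PCR and transcribed. Each library was annealed with a biotinylated primer, the partner subunit and triplets, incubated frozen at −7 °C, and its extended constructs gel-excised, captured on streptavidin beads and amplified by RT-PCR, all in one round done in triplicate. Fitness is the logarithm of genotype enrichment relative to wild-type enrichment, with replicates averaged by inverse-variance weighting. That logarithm is base 2, and Illumina-sequenced genotypes needed ≥10 input reads and ≥1 read per output.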
row,Variant,polymerase ribozyme fitness (log ratio)
1,U55A G71A G81C C95G C125U,≤ -4.2
2,U55A A115U U127G U135A U145A,-1.32
3,U56A G141U,0.137
4,U56G A142U,-0.88
5,C57A C85U G124U U130A,-2.9
6,U55A C96A,-1.21
7,U55A C96G,-1.04
8,U56A A73U C87A A142C,≤ -4.2
9,U56A C96U G126A,-0.336
10,U55A G92A,-2.69
11,C54U U77G A121C,≤ -4.2
12,U55A G92A C125A,-3.46
13,U55G G83C U135A G136A C149A,≤ -4.2
14,C54U U55A,-0.284
15,C57A C69A U127A,≤ -4.2
16,U56G A97C,-1.65
17,C57A G128C,-2.62
18,C54U U78G C96G A113U,≤ -4.2
19,U56A A89G,-2.69
20,U56A C57U C96U,-0.285
21,U55A U101G A107G A138C G141A,≤ -4.2

row,Variant,polymerase ribozyme fitness (log ratio)
1,U55A G81C G84U C116A,-2.11
2,C54U C95A,-1.44
3,U56C G133U,-4.01
4,C57A G74U G88U A115G A119U U145G C149G,≤ -4.2
5,U56G G83U C125U,-1.82
6,C57A C72G U77A C87A U127A G136A,≤ -4.2
7,U56C U102G A142G,-3.95
8,U55A G70C G92U A119U,-3.25
9,C57A G59C A60G,0.42
10,U55A U56A U78C G83U A89U,-0.955
11,C54U G83C C85G A138G,≤ -4.2
12,U55A C85U,-0.644
13,U56A G70A G81C,≤ -4.2
14,U55A C93G G143A,-3.93
15,U56G G81A U104C U145C,-1.47
16,U56G C72U,-0.106
17,U56G A64U G81A G88A C114A A115U G141U,≤ -4.2
18,U56A A73C G84U U127C,≤ -4.2
19,U55A G83A G124A,-0.748
20,U55C A119G U145A,-0.113
21,U55G C108G,≤ -4.2

row,Variant,polymerase ribozyme fitness (log ratio)
1,C54U U55A G86A C116G,-2.2
2,U55G C87U G92A U101G G143U,-3.33
3,U56A U77C,-2.93
4,U56A U130A,-2.03
5,U56A A113U,-1.87
6,U56A U61A C114G,-3.96
7,U55A G81A,-1.9
8,C54U G83A,-0.655
9,C54U G83U,-0.319
10,C57A G83C C87U U134G U139A U144G,≤ -4.2
11,U56A C105U A121C G133U G140U,≤ -4.2
12,U56A U61G G65A C85A G86A A121U U127A,≤ -4.2
13,U55A C85A G100A A121G C131A,≤ -4.2
14,U55A C76A A115G A121C,-1.09
15,U56A U78A C79A,≤ -4.2
16,U55A C93A,-2.96
17,U56G G141U,0.498
18,U55A C76A G84U C116U A137U,≤ -4.2
19,C57A G68C C85A U134A U146C,≤ -4.2
20,U56A C93U A147G,-1.96
21,U55A A64G U135A,≤ -4.2

row,Variant,polymerase ribozyme fitness (log ratio)
1,C54U C75G,-3.81
2,C57A A73U G84A U135A,-2.22
3,U55A U56G G80A,-1.37
4,U56A C63U A64U G84A G128A,≤ -4.2
5,U56G C85G A115U,-3.43
6,U55G G59A G83A A98C C116G U127G,-4.04
7,C54U G59C A60U A66C,≤ -4.2
8,U55A U56A A97U,-0.565
9,U55G G84A C118U,-0.685
10,U55A A60C G62A G81A C85U G133C,≤ -4.2
11,C54U U144A,-0.258
12,U56C C93U,-1.53
13,U55A C85A G141C,-1.86
14,U55A C79U,-2.74
15,U56A C96A A138G,≤ -4.2
16,C54U G81A G86U C105A A147U,-4.16
17,C54U C95U A98G A142U,-1.61
18,U56G A60G G84A,-0.664
19,C57A C95A C96U G141A,-4.07
20,U56A G74U C85G G133U,≤ -4.2
